The data set is described as follows: protein stability index of a GFP-peptide fusion (GPS, HEK-293T) (PSI 1-6); higher = more stable. The following applies: c terminus: a fixed tail appended.

± gives the standard deviation.

The source of these data is the supplement of paper PMC10567573.
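Also: 24-mer peptide tiles fused after GFP, lentivirally expressed, FACS-sorted into six equal bins by GFP/DsRed ratio, decoded by Illumina sequencing, PSI is the read-weighted mean bin number.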

With NIKPRRYLTVVFEHDAWFIFFMAA [SLC29A1], the protein stability index is 3.1 ± 0.48 (treatment: DMSO) and 2.48 ± 0.61 (treatment: MLN4924 1 uM, 8 h).
Turning to LAVMGYDRYIAICNPLRYSVLMGH [OR10K2], the protein stability index worked out at 2.55 ± 0.28 (treatment: DMSO) and 2.58 ± 0.6 (treatment: MLN4924 1 uM, 8 h).
For QHLGEYENVLAALEGLNLSILKAM [NECAB1] the same measures were 2.25 ± 0.24 and 2.38 ± 0.23.
As for RPGGGRVKIESVKLDFKEKAQAKV [MAP2], the protein stability index is 4.06 ± 0.3 (treatment: DMSO) and 4.01 ± 0.25 (treatment: MLN4924 1 uM, 8 h).
As to EQLIEAINNGDFEAYTKICDPGLT [CAMK2D], the protein stability index by setting is: (treatment: DMSO) 4.06 ± 0.34; (treatment: MLN4924 1 uM, 8 h) 4.1 ± 0.23.
For MMHDQRTGPAWNVLMWTMLFLGQG [SOAT2] the same measures were 2.8 ± 0.93 and 2.65 ± 0.59.
The like results for RYEPDSKAFGVGVAYRSLGRFEQL [FSD1] were, in that order, 2.48 ± 0.38 and 2.63 ± 0.33.
The like results for SRGYRNHRSSRETRDYAPPSRGHA [RBMY1A1] were, in that order, 4.63 ± 0.3 and 4.63 ± 0.4.
For DQDGDQAPEYRGRTELLKDAIGEG [MOG], the protein stability index is 5.33 ± 0.34 (treatment: DMSO) and 5.43 ± 0.21 (treatment: MLN4924 1 uM, 8 h).
The like results for WNILKTIALGQMLSLCICGTAITS [SLC35F2] were, in that order, 3.03 ± 0.37 and 3.03 ± 0.71.
For KEGRPGIPGLPGLRGLPGERGTPG [SCARA5] the same measures were 4.21 ± 0.41 and 4.43 ± 0.24.
For TLGKVLKVIVVMRSLFIDRTIVKG [MED27] the same measures were 3.01 ± 0.66 and 2.74 ± 0.97.
In the case of ETPEWLDSDSCQKCDQPFFWNFKQ [WDFY2], the protein stability index (treatment: DMSO) was 2.94 ± 0.29 and the protein stability index (treatment: MLN4924 1 uM, 8 h) worked out at 3.19 ± 0.11.
The like results for GHGAEQAAAFPTEDSRTSKESMSE [EHMT1] were, in that order, 5.69 ± 0.2 and 5.19 ± 0.62.
For the sequence VTSDVNKLSSFYSLKLIKRLYVDK [SERPINB5], the protein stability index reads like this: (treatment: DMSO) 2.18 ± 0.18; (treatment: MLN4924 1 uM, 8 h) 2.29 ± 0.18.
The like results for WEALNMMGLYDGMEHLIYGEPRKL [MAGEA10] were, in that order, 2.22 ± 0.59 and 2.45 ± 0.34.
For AALIEAIQDRLSNTLQTYIRCRHP [VDR] the same measures were 2.49 ± 0.5 and 2.54 ± 0.32.
The like results for SQCQMETKPLAIHPCGDKNCPAHW [ADAMTSL2] were, in that order, 3.91 ± 0.62 and 4.53 ± 0.31.
Consider LHLAAQGRHAQTVETLLRHGAHIN [RIPK4], for which the protein stability index is 2.4 ± 0.31 (treatment: DMSO) and 2.98 ± 0.51 (treatment: MLN4924 1 uM, 8 h).
The like results for PEITTEDIKAAFAPFGRISDARVV [TIA1] were, in that order, 3.34 ± 0.21 and 3.3 ± 0.13.
The like results for DALNRRKAQLLARVNKEHEHKLKV [TRIM9] were, in that order, 3.47 ± 0.11 and 3.29 ± 0.092.
The like results for FAPLLDEQYDLATKRVRQLLDLDP [GOLPH3] were, in that order, 2.64 ± 0.48 and 2.94 ± 0.33.
In the case of PDGLMYQKFRNQFLSFSMYQSFVQ [TMEM120A], the protein stability index (treatment: DMSO) was determined as 2.68 ± 0.59 and the protein stability index (treatment: MLN4924 1 uM, 8 h) was determined as 2.33 ± 0.76.
In the case of QSIQQAMRYLRNHCLDQVGLFRKS [DLC1], the protein stability index worked out at 2.73 ± 0.091 (treatment: DMSO) and 2.26 ± 0.28 (treatment: MLN4924 1 uM, 8 h).
Regarding PLLCPSYQSYFKTIEELQQKILCA [KRT34], the protein stability index (treatment: DMSO) amounted to 4 ± 0.19.
Take ALGCVMYTMLLGRPPFETTNLKET [PLK2]: the protein stability index stood at 2.72 ± 0.74 (treatment: DMSO) and 2.79 ± 1.1 (treatment: MLN4924 1 uM, 8 h).
For ERHCHLYTFHARFGEVRPYFYLGG [TRIM35] the same measures were 2.61 ± 0.49 and 2.6 ± 0.52.
Take TVVGLFNVRDRDSGRNGEVSLDIS [PCDHGC5]: the protein stability index came to 2.83 ± 0.37 (treatment: DMSO) and 3.13 ± 0.19 (treatment: MLN4924 1 uM, 8 h).
As to LDSDHRELIGDYSKAFLLQTVDGK [CDC25B], the protein stability index is, setting by setting: (treatment: DMSO) 3.77 ± 0.061; (treatment: MLN4924 1 uM, 8 h) 3.81 ± 0.2.
For KGELAPELGEEPQPRDEEEAELEL [POLD4] the same measures were 5.44 ± 0.23 and 5.69 ± 0.13.
In the case of PALKECIQGADTIRCVYILDPWFA [CRY1], the protein stability index (treatment: DMSO) was 2.95 ± 0.55 and the protein stability index (treatment: MLN4924 1 uM, 8 h) came to 2.73 ± 0.74.
For GYPPFCSETPQETYRKVMNWKETL [STK38L] the same measures were 2.88 ± 0.29 and 3.05 ± 0.37.
The like results for EFCRNTLCAPEVISLINTRMLFWA [FAF2] were, in that order, 2.74 ± 0.45 and 2.73 ± 0.32.
Take MSPGPLDALSSPTSVQEADETTRS [C2CD2L]: the protein stability index is, setting by setting: (treatment: DMSO) 5.35 ± 0.37; (treatment: MLN4924 1 uM, 8 h) 5.38 ± 0.15.
With PRAAGTDGSDFQHRERVAMHYQMS [JAGN1], the protein stability index is 3.96 ± 0.25 (treatment: DMSO) and 4.06 ± 0.18 (treatment: MLN4924 1 uM, 8 h).
Turning to GLSAPHSRQIPAPQGAVLVQREKD [KISS1], the protein stability index was determined as 5.34 ± 0.19 (treatment: DMSO) and 5.19 ± 0.087 (treatment: MLN4924 1 uM, 8 h).
For LLQGAGLDVERWLKPAMTQAQDEV [FCHSD1] the same measures were 3.6 ± 0.28 and 3.54 ± 0.26.
The like results for NMSSSRGPLPVKRGPPPRSGGPPP [RBMX] were, in that order, 4.41 ± 0.22 and 4.45 ± 0.45.
For VGPWLGQLQELLHHCDDHLSLYQL [RSAD1] the same measures were 2.25 ± 0.45 and 2.6 ± 0.55.
Turning to LLEDDSDEEEDFFLRGPSGPRFGP [VAMP4], the protein stability index stood at 3.97 ± 0.28 (treatment: DMSO) and 4.04 ± 0.39 (treatment: MLN4924 1 uM, 8 h).
For AKQLFRKLNEQSPTRCTLEAGAMT [SEC22B] the same measures were 2.45 ± 0.21 and 2.6 ± 0.17.
The like results for PLAEQTPLTLQSQPKEPQLTCDSA [ZSCAN9] were, in that order, 5.25 ± 0.28 and 5.35 ± 0.36.
For EMCHKPDVELLQDLGDIVARSESV [TRIM43] the same measures were 4.66 ± 0.15 and 4.62 ± 0.24.
Sequence SAGIAKLEEGDELQLAIPRENAQI [TNFSF13B] yielded a protein stability index (treatment: DMSO) of 5.08 ± 0.25 and a protein stability index (treatment: MLN4924 1 uM, 8 h) of 4.97 ± 0.23.
Take HPDSWRAYPFYWAWLPQAKVPFSQ [PI4K2A]: the protein stability index is 2.5 ± 0.37 (treatment: DMSO) and 2.02 ± 0.94 (treatment: MLN4924 1 uM, 8 h).
For LEGQDAKMIGFPSSAGSVSPRSTS [KRT13] the same measures were 5.18 ± 0.16 and 5.152 ± 0.026.
For FLPGYVGGIQEGAVTPAGVVNKYQ [DHCR7] the same measures were 3.42 ± 0.21 and 3.45 ± 0.24.
The like results for NQSRCEMKTFVSPEAISPDLVKKI [TRIM15] were, in that order, 3.98 ± 0.3 and 4.14 ± 0.37.
Turning to GLQEEPVEGFRVTLVDEGDLYNWE [CDC34], the protein stability index by setting is: (treatment: DMSO) 4.26 ± 0.14; (treatment: MLN4924 1 uM, 8 h) 4.15 ± 0.34.
For WYQPSFHGVDLSALRGAAVDEYFR [CARM1] the same measures were 2.71 ± 0.18 and 2.75 ± 0.34.
In the case of LFVADAYKGLFEVNPWKREVKLLL [APMAP], the protein stability index by setting is: (treatment: DMSO) 2.56 ± 0.27; (treatment: MLN4924 1 uM, 8 h) 2.34 ± 0.9.
As to FLVSAVAHEYIFCFVLGFFYPVML [SOAT2], the protein stability index is, setting by setting: (treatment: DMSO) 3.25 ± 0.35; (treatment: MLN4924 1 uM, 8 h) 3.3 ± 0.44.
DTEVITVEKSSPATSLFVELDEEE [BCL2L13]: the protein stability index was determined as 5.39 ± 0.065 (treatment: DMSO) and 5.54 ± 0.25 (treatment: MLN4924 1 uM, 8 h).
